Experimental data from US20190184028A1 (Janssen / Centocor, published 2019).

Key:
Assay in all cases: cell-based or functional assay
[1] = biological target: T1, human EpCAM (human, UniProt P16422 24-314)
T1 sequence (looked up): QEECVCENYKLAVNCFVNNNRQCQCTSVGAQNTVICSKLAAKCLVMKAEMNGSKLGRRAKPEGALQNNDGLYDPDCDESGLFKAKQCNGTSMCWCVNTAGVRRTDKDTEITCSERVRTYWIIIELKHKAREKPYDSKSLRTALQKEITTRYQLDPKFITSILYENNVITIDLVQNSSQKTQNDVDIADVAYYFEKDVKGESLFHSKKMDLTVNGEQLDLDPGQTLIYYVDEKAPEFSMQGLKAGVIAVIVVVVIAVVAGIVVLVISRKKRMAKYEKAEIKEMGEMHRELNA

[2] = biological target: T1, human EpCAM; remark: listed apart in the source
[3] = biological target: prostate specific membrane antigen (PSMA) (UniProt Q04609 1-750, limits assumed)
Chain of prostate specific membrane antigen (PSMA) (Q04609 whole entry): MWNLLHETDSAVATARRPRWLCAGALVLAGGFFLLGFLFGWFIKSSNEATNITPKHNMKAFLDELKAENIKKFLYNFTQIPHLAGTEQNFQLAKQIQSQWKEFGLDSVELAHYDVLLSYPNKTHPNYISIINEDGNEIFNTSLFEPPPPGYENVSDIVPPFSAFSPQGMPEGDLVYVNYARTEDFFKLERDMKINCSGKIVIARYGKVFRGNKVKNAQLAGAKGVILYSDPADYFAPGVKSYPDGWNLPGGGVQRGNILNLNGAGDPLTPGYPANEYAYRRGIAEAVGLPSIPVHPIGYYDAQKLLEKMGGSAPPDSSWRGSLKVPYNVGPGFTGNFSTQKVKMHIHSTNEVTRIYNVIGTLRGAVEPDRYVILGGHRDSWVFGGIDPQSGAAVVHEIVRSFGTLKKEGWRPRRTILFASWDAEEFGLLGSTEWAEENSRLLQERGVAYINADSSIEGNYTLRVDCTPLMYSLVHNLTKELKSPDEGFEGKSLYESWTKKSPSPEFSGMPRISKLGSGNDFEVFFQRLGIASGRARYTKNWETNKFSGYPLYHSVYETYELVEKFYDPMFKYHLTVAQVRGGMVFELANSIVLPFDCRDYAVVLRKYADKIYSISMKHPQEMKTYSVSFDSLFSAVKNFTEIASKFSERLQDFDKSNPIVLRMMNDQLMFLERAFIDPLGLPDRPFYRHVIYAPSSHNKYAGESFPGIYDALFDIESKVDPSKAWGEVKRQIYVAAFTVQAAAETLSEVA

[4] = biological target: T1, human EpCAM; remark: listed apart in the source

B1: Iso124R5AB_D6_cys vcMMAF conjugate (designed binder)
chain: MLPAPKNLVVSRVTEDSARLSWHNHRPQFDSFLIQYQESEKVGEAIVLTVPGSERSYDLTGLKPGTEYTVSIYGVAIAVPWNYQSNPLSAIFTTGGHHHHHHGGC
modifications: vc-MMAF on the C-terminal cysteine (cysteine-maleimide chemistry)
- Cytotoxicity Assays of CDCs, A431 cells IC50 (nm) [1]: 59.2 nm
- Cytotoxicity Assays of CDCs, HT-29 cells IC50 (nm) [1]: 38.3 nm

B2: ISOP130R5CP7_G02srt vcMMAF conjugate (designed binder)
chain: MLPAPKNLVVSRVTEDSARLSWKHYRPGARFDSFLIQYQESEKVGEAIILTVPGSERSYDLTGLKPGTEYTVSIYGVVTHALPTAYTSNPLSAIFTTGGHHHHHHGGLPETGGH
modifications: vcMMAF conjugated via the sortase reaction at the C-terminal sortase tag (Gly3-vcMMAF)
- % viable COLO205 cells, 1 nM [2]: 39%

B3: ISOP130R5CP6_F02srt vcMMAF conjugate (designed binder)
chain: MLPAPKNLVVSRVTEDSARLSWDQYRKYAGFDSFLIQYQESEKVGEAIVLTVPGSERSYDLTGLKPGTEYTVSIYGVVTHALPQTYQSNPLSAIFTTGGHHHHHHGGLPETGGH
modifications: vcMMAF conjugated via the sortase reaction at the C-terminal sortase tag (Gly3-vcMMAF)
- % viable COLO205 cells, 1 nM [2]: 90%

B4: ISOP130R5CP7_F11srt vcMMAF conjugate (designed binder)
chain: MLPAPKNLVVSRVTEDSARLSWKHYRPGARFDSFLIQYQESEKVGEAIVLTVPGSERSYDLTGLKPGTEYTVSIYGVIWGALPNSYSSNPLSAIFTTGGHHHHHHGGLPETGGH
modifications: vcMMAF conjugated via the sortase reaction at the C-terminal sortase tag (Gly3-vcMMAF)
- % viable COLO205 cells, 1 nM [2]: 81%

B5: ISOP130R5CP6_A02srt vcMMAF conjugate (designed binder)
chain: MLPAPKNLVVSRVTEDSARLSWKHYRPGARFDSFLIQYQESEKVGEAIVLTVPGSERSYDLTGLKPGTEYTVSIYGVVNNALPRWYISNPLSAIFTTGGHHHHHHGGLPETGGH
modifications: vcMMAF conjugated via the sortase reaction at the C-terminal sortase tag (Gly3-vcMMAF)
- % viable COLO205 cells, 1 nM [2]: 66%

B6: ISOP130R5CP6_A06_cys vcMMAF conjugate (designed binder)
chain: MLPAPKNLVVSRVTEDSARLSWKHYRPGARFDSFLIQYQESEKVGEAIVLTVPGSERSYDLTGLKPGTEYTVSIYGVVTALPSYYSSNPLSAIFTTGGHHHHHHGGC
modifications: vc-MMAF on the C-terminal cysteine (cysteine-maleimide chemistry)
- Cytotoxicity Assays of CDCs, A431 cells IC50 (nm) [1]: 9.9 nm
- Cytotoxicity Assays of CDCs, HT-29 cells IC50 (nm) [1]: 6.7 nm

B7: ISOP130R5CP7_G04_cys vcMMAF conjugate (designed binder)
chain: MLPAPKNLVVSRVTEDSARLSWKHYRPGARFDSFLIQYQESEKVGEAIVLTVPGSERSYDLTGLKPGTEYTVSIYGVAAHAIPRYASNPLSAIFTTGGHHHHHHGGC
modifications: vc-MMAF on the C-terminal cysteine (cysteine-maleimide chemistry)
- Cytotoxicity Assays of CDCs, A431 cells IC50 (nm) [1]: 48.1 nm
- Cytotoxicity Assays of CDCs, HT-29 cells IC50 (nm) [1]: 37.7 nm

B8: P234CR9_H01 vcMMAF conjugate (designed binder)
chain: LPAPKNLVVSRVTEDSARLSWEWWVIPGDFDSFLIQYQESEKVGEAIVLTVPGSERSYDLTGLKPGTEYTVSIYGVVNSGQWNDTSNPLSAIFTT
modifications: vc-MMAF conjugated through a sortase tag (Gly3-vc-MMAF, sortase A)
- LNCaP cells IC50 (nM), cytotoxicity (CellTiterGlo) [3]: 22.6 nM
- MDA-PCA-2B cells IC50 (nM), cytotoxicity (CellTiterGlo) [3]: 151 nM
- VCAP cells IC50 (nM), cytotoxicity (CellTiterGlo) [3]: 401 nM

B9: P229CR5P819_H11 vcMMAF conjugate (designed binder)
chain: LPAPKNLVVSRVTEDSARLSWDIDEQRDWFDSFLIQYQESEKVGEAIVLTVPGSERSYDLTGLKPGTEYTVSIYGVYHVYRSSNPLSAIFTT
modifications: vc-MMAF conjugated through a sortase tag (Gly3-vc-MMAF, sortase A)
- LNCaP cells IC50 (nM), cytotoxicity (CellTiterGlo) [3]: 9.3 nM
- MDA-PCA-2B cells IC50 (nM), cytotoxicity (CellTiterGlo) [3]: 107 nM
- VCAP cells IC50 (nM), cytotoxicity (CellTiterGlo) [3]: 231 nM

B10: P233FR9P1001-H3-1 vcMMAF conjugate (designed binder)
chain: LPAPKNLVVSRVTEDSARLSWTAPDAAFDSFPIGYWEWDDDGEAIVLTVPGSERSYDLTGLKPGTEYHVYIAGVKGGQWSFPLSAIFTT
modifications: vc-MMAF conjugated through a sortase tag (Gly3-vc-MMAF, sortase A)
- LNCaP cells IC50 (nM), cytotoxicity (CellTiterGlo) [3]: 0.4 nM
- MDA-PCA-2B cells IC50 (nM), cytotoxicity (CellTiterGlo) [3]: 4.6 nM
- VCAP cells IC50 (nM), cytotoxicity (CellTiterGlo) [3]: 15.2 nM

B11: P233FR9_H10 vcMMAF conjugate (designed binder)
chain: LPAPKNLVVSRVTEDSARLSWTAPDAAFDSFAIGYWEWDDDGEAIVLTVPGSERSYDLTGLKPGTEYPVYIAGVKGGQWSFPLSAIFTT
modifications: vc-MMAF conjugated through a sortase tag (Gly3-vc-MMAF, sortase A)
- LNCaP cells IC50 (nM), cytotoxicity (CellTiterGlo) [3]: 0.5 nM
- MDA-PCA-2B cells IC50 (nM), cytotoxicity (CellTiterGlo) [3]: 5.8 nM
- VCAP cells IC50 (nM), cytotoxicity (CellTiterGlo) [3]: 25.9 nM

B12: ISOP130R5CP6_F01srt vcMMAF conjugate (designed binder)
chain: MLPAPKNLVVSRVTEDSARLSWKHYRPGARFDSFLIQYQESEKVGEAIVLTVPGSERSYDLTGLKPGTEYTVSIYGVVTALPSNYISNPLSAIFTTGGHHHHHHGGLPETGGH
modifications: vcMMAF conjugated via the sortase reaction at the C-terminal sortase tag (Gly3-vcMMAF)
- % viable COLO205 cells, 1 nM [2]: 43%

B13: ISOP130R5CP6_A06_Y25A vcMMAF conjugate (designed binder)
chain: MLPAPKNLVVSRVTEDSARLSWKHARPGARFDSFLIQYQESEKVGEAIVLTVPGSERSYDLTGLKPGTEYTVSIYGVVTALPSYYSSNPLSAIFTTGGHHHHHHGGLPETGGH
modifications: vcMMAF conjugated via the sortase reaction at the C-terminal sortase tag
- IC50 (nM), cytotoxicity on COLO205 cells (CellTiterGlo) [4]: 127 nM

B14: ISOP130R5CP6_A06_H24A vcMMAF conjugate (designed binder)
chain: MLPAPKNLVVSRVTEDSARLSWKAYRPGARFDSFLIQYQESEKVGEAIVLTVPGSERSYDLTGLKPGTEYTVSIYGVVTALPSYYSSNPLSAIFTTGGHHHHHHGGLPETGGH
modifications: vcMMAF conjugated via the sortase reaction at the C-terminal sortase tag
- IC50 (nM), cytotoxicity on COLO205 cells (CellTiterGlo) [4]: 2.6 nM
